Data as given in PMC7238552 (Cell, 2020).
One block for each binder: values may come before it.

Legend:
[1] = target: human integrin αvβ8 ectodomain (for structural studies) (Homo sapiens, UniProt P06756;P26012); assay: cryo-EM structure
[2] = target: recombinant integrin αvβ1 (R&D Systems) (Homo sapiens (assumed), UniProt P06756;P05556); assay: ELISA
[3] = target: recombinant integrin αvβ3 (R&D Systems) (Homo sapiens (assumed), UniProt P06756;P05106); assay: ELISA
[4] = target: recombinant integrin αvβ5 (R&D Systems) (Homo sapiens (assumed), UniProt P06756;P18084); assay: ELISA
Sequence of recombinant integrin αvβ5 (R&D Systems) (P06756 31-1048, chain 1 of 2): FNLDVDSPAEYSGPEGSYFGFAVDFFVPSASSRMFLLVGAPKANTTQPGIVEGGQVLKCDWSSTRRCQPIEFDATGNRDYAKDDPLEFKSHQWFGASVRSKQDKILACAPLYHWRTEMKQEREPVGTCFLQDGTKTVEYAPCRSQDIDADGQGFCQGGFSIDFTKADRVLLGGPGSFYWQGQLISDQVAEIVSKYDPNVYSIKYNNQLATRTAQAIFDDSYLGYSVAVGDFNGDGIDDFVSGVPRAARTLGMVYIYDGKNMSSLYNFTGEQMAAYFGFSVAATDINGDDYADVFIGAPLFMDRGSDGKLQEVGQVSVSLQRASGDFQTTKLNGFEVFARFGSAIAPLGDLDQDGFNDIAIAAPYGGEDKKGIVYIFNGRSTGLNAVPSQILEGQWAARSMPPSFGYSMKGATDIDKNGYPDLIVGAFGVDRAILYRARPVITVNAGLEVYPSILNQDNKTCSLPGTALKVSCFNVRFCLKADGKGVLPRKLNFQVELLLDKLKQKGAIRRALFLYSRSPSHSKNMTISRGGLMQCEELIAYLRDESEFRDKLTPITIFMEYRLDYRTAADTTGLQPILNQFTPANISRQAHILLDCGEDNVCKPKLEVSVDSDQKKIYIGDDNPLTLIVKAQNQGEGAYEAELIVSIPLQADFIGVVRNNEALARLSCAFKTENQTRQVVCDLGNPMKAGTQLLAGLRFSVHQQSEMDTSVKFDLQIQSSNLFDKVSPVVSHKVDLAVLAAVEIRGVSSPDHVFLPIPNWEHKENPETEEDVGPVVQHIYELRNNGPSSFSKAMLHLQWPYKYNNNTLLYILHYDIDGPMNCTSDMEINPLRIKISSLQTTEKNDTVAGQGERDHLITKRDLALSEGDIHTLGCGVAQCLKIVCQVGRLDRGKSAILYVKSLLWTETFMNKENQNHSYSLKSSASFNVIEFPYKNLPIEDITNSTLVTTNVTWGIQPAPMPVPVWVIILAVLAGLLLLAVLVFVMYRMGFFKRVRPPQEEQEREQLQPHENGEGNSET
Sequence of recombinant integrin αvβ5 (R&D Systems) (P18084 24-719, chain 2 of 2): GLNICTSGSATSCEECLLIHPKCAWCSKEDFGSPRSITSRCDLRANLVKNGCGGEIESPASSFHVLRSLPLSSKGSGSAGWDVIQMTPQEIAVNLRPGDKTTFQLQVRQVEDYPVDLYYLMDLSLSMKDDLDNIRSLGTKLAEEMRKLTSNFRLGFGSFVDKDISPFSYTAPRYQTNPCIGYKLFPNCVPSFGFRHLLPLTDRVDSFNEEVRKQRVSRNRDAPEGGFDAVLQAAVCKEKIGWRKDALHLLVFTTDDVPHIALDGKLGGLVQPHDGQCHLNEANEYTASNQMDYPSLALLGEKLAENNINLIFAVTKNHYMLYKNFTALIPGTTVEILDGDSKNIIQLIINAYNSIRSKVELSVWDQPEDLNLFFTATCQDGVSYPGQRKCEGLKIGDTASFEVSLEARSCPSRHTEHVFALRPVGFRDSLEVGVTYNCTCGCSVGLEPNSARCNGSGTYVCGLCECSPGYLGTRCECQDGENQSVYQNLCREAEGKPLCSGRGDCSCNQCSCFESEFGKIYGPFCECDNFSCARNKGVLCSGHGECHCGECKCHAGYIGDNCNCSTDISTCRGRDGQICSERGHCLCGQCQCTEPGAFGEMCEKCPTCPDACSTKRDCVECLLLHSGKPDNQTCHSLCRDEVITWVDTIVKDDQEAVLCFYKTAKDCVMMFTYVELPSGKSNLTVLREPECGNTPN

Sequence of human integrin αvβ8 ectodomain (for structural studies) (P06756 31-992, chain 1 of 2): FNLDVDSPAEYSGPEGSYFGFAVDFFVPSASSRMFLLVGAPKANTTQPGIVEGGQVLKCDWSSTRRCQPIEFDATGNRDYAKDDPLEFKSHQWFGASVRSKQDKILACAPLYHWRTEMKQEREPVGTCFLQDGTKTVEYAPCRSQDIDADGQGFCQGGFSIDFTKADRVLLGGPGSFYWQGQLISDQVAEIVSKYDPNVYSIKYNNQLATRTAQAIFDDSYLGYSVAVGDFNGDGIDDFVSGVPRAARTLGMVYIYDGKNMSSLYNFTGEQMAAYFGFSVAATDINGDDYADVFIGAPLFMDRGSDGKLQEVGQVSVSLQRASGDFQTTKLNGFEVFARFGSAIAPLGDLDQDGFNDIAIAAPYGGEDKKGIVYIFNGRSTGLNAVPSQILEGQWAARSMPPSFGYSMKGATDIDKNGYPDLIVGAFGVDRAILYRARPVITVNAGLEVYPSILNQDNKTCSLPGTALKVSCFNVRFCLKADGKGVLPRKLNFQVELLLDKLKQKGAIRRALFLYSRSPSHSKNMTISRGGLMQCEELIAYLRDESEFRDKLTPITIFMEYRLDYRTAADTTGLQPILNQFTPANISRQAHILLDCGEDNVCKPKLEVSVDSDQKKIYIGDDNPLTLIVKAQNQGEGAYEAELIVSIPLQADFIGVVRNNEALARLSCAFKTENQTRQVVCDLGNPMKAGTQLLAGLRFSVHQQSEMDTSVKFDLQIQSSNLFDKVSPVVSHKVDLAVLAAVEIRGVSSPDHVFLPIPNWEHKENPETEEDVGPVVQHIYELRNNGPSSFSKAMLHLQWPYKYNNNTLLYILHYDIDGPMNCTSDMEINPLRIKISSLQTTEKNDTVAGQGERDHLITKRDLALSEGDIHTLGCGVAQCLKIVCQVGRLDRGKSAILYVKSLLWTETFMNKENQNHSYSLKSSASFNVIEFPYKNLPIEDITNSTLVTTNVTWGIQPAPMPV
Sequence of human integrin αvβ8 ectodomain (for structural studies) (P26012 43-684, chain 2 of 2): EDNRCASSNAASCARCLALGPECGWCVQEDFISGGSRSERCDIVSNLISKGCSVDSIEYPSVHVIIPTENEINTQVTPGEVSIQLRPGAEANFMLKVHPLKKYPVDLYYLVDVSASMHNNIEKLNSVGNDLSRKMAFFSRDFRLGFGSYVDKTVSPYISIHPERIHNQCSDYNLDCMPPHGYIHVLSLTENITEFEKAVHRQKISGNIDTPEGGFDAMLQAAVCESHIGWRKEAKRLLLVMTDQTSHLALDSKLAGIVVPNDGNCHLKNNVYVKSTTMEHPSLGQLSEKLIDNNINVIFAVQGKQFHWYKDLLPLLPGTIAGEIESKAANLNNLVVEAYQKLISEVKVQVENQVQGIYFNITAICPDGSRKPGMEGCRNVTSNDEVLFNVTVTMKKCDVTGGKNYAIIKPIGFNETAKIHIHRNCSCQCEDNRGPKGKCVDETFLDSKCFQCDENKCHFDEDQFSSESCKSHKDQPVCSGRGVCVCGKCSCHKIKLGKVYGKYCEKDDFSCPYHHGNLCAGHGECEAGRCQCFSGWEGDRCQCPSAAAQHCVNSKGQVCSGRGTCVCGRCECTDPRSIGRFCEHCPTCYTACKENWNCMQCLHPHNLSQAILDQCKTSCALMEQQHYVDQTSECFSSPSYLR
Sequence of recombinant integrin αvβ1 (R&D Systems) (P06756 31-1048, chain 1 of 2): as the sequence (P06756 31-1048, chain 1 of 2) above
Sequence of recombinant integrin αvβ1 (R&D Systems) (P05556 21-728, chain 2 of 2): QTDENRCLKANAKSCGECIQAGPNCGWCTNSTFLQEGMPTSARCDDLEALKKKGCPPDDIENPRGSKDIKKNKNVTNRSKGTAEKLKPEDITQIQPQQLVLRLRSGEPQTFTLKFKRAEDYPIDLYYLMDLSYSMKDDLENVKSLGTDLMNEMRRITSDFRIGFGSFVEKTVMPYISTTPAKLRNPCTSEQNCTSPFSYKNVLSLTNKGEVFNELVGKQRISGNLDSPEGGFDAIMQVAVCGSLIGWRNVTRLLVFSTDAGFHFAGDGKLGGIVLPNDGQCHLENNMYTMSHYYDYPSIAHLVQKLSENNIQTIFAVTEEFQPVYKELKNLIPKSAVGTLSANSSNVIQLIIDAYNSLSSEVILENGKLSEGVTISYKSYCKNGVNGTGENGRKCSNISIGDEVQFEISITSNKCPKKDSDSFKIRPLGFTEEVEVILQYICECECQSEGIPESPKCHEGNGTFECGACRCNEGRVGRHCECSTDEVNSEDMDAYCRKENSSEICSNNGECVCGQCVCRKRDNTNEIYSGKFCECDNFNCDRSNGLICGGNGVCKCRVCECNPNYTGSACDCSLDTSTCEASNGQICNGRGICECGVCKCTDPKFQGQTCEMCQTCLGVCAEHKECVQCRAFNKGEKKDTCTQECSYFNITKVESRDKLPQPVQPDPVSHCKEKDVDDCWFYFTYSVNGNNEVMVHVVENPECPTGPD
Sequence of recombinant integrin αvβ3 (R&D Systems) (P06756 31-1048, chain 1 of 2): as the sequence (P06756 31-1048, chain 1 of 2) above
Sequence of recombinant integrin αvβ3 (R&D Systems) (P05106 27-718, chain 2 of 2): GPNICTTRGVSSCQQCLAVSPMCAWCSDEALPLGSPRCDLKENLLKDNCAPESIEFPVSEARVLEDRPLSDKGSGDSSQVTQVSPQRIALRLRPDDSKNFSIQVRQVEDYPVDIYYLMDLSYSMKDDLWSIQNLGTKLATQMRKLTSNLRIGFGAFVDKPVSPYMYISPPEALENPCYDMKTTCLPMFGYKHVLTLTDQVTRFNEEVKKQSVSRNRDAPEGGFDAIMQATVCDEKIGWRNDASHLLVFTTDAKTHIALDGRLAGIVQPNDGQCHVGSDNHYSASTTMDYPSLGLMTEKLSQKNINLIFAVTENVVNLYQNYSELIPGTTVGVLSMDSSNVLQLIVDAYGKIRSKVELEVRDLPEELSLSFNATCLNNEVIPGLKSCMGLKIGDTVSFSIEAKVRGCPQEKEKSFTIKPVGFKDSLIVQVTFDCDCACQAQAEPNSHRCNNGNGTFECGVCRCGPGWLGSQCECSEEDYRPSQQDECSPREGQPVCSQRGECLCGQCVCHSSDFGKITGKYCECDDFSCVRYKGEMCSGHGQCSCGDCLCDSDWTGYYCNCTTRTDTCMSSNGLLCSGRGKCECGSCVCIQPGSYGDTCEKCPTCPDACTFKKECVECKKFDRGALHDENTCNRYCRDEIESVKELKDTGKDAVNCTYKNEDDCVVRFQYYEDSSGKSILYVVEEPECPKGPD

binding result [1]: binds
B1: C6-RGD3 Fab (Fab, V domains shown)
VH: QIQLVQSGPELKKPGETVKISCKASGYTFTDYSMHWVKQAPGKGLKWVARINTETGEPTFADDFRGRFAVSLETSASTAYLQINNLKNEDTATYFCAIFYYGRDSWGQGTTLTVSS
VL: DIVMTQSPSSLAVSAGEKVTMSCKSSQSLLGRGDLGRLKKNALAWYQQKPGQSPRLLIYWASTRESGVPDRFTGSGSGTDFTLTISSVQAEDLAVYYCKQSYNLLSFGAGTKLELK

binding result [2]: no binding | binding result [3]: no binding | binding result [4]: no binding
B2: C6-RGD3 antibody (mouse IgG2a) (antibody, V domains shown)
VH: B1 VH
VL: B1 VL
